In PMC10397247:
Where two headings read alike, the source gives them in different places. One block for each binder: values may come before it.

Columns and labels:
Assay in all cases: two-hybrid library CCmax;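 note: natural log of median RNA to DNA barcode read ratio; higher means stronger binding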
4H347-AA = molecular target: T1, 4H347-AA; settings: mean of both orientations
T1 chain: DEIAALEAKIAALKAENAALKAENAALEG

4H2732-AA = molecular target: T2, 4H2732-AA; settings: mean of both orientations
T2 chain: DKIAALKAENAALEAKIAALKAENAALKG

4H2343-AA = molecular target: T3, 4H2343-AA; settings: mean of both orientations
T3 chain: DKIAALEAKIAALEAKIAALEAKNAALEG

4H3001-AA = molecular target: T4, 4H3001-AA; settings: mean of both orientations
T4 chain: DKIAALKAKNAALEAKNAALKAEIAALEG

4H1913-AA = molecular target: T5, 4H1913-AA; settings: mean of both orientations
T5 chain: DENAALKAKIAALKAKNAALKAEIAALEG

4H3112-AA = molecular target: T6, 4H3112-AA; settings: mean of both orientations
T6 chain: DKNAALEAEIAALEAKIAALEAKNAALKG

4H2442-AA = molecular target: T7, 4H2442-AA; settings: mean of both orientations
T7 chain: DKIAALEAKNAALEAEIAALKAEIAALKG

4H3129-AA = molecular target: T8, 4H3129-AA; settings: mean of both orientations
T8 chain: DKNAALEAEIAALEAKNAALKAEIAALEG

4H483-AA = molecular target: T9, 4H483-AA; settings: mean of both orientations
T9 chain: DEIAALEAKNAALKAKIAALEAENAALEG

4H1845-AA = molecular target: T10, 4H1845-AA; settings: mean of both orientations
T10 chain: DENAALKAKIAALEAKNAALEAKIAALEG

4H3427-AA = molecular target: T11, 4H3427-AA; settings: mean of both orientations
T11 chain: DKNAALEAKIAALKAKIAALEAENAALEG

4H2621-AA = molecular target: T12, 4H2621-AA; settings: mean of both orientations
T12 chain: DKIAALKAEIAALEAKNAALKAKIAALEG

4H2699-AA = molecular target: T13, 4H2699-AA; settings: mean of both orientations
T13 chain: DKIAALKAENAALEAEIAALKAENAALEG

4H3588-AA = molecular target: T14, 4H3588-AA
T14 chain: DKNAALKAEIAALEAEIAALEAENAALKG

4H1867-AA = molecular target: T15, 4H1867-AA; settings: mean of both orientations
T15 chain: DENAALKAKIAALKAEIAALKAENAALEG

AP1-AA = molecular target: T16, AP1-AA; settings: mean of both orientations
T16 chain: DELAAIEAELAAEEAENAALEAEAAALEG

4H317-AA = molecular target: T17, 4H317-AA
T17 chain: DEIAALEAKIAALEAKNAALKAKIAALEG

P2-AA = molecular target: T18, P2-AA; settings: mean of both orientations
T18 chain: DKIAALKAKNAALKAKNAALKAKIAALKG

4H2944-AA = molecular target: T19, 4H2944-AA; settings: mean of both orientations
T19 chain: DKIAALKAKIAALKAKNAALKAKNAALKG

4H993-AA = molecular target: T20, 4H993-AA; settings: mean of both orientations
T20 chain: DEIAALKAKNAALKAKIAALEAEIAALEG

4H48-AA = molecular target: T21, 4H48-AA; settings: mean of both orientations
T21 chain: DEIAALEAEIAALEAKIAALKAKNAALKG

O6-AA = molecular target: T22, O6-AA; settings: mean of both orientations
T22 chain: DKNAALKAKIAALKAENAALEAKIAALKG

4H2907-AA = molecular target: T23, 4H2907-AA; settings: mean of both orientations
T23 chain: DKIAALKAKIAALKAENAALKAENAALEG

4H2883-AA = molecular target: T24, 4H2883-AA; settings: mean of both orientations
T24 chain: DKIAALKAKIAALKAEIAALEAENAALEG

4H454-AA = molecular target: T25, 4H454-AA; settings: mean of both orientations
T25 chain: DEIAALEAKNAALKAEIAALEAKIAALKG

4H3162-AA = molecular target: T26, 4H3162-AA; settings: mean of both orientations
T26 chain: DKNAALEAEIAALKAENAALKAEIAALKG

4H2165-AA = molecular target: T27, 4H2165-AA; settings: mean of both orientations
T27 chain: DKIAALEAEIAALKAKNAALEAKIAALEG

AP5-AA = molecular target: T28, AP5-AA; settings: mean of both orientations
T28 chain: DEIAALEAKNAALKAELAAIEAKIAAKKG

4H_APH2 = molecular target: T29, 4H_APH2
T29 chain: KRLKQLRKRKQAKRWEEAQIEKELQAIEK

4H2198-AA = molecular target: T30, 4H2198-AA; settings: mean of both orientations
T30 chain: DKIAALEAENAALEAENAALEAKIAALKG

P4-AA = molecular target: T31, P4-AA; settings: mean of both orientations
T31 chain: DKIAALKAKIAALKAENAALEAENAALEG

4H3133-AA = molecular target: T32, 4H3133-AA; settings: mean of both orientations
T32 chain: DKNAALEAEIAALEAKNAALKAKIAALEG

P6-AA-1HAA-N = molecular target: T33, P6-AA-1HAA-N; settings: mean of both orientations
T33 chain: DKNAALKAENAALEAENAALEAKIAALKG

4H1552-AA = molecular target: T34, 4H1552-AA; settings: mean of both orientations
T34 chain: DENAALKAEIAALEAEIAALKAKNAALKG

4H1864-AA = molecular target: T35, 4H1864-AA; settings: mean of both orientations
T35 chain: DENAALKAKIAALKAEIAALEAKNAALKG

4H123-AA = molecular target: T36, 4H123-AA; settings: mean of both orientations
T36 chain: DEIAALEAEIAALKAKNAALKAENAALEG

4H1597-AA = molecular target: T37, 4H1597-AA; settings: mean of both orientations
T37 chain: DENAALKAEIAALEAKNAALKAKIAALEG

4H1388-AA = molecular target: T38, 4H1388-AA; settings: mean of both orientations
T38 chain: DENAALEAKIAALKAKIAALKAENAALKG

4H1392-AA = molecular target: T39, 4H1392-AA; settings: mean of both orientations
T39 chain: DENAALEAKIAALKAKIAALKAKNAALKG

4H3905-AA = molecular target: T40, 4H3905-AA; settings: mean of both orientations
T40 chain: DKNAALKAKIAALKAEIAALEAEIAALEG

4H780-AA = molecular target: T41, 4H780-AA; settings: mean of both orientations
T41 chain: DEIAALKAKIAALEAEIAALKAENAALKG

interaction score (4H347-AA): -1.66
interaction score (4H2732-AA): -1.3
interaction score (4H2343-AA): -2.02
interaction score (4H3001-AA): -1.42
B1: 4H2253-AA (peptide)
chain: DKIAALEAENAALKAEIAALKAKIAALEG

interaction score (4H1913-AA): -0.977
interaction score (4H3112-AA): 0.173
interaction score (4H2442-AA): -1.57
interaction score (4H3129-AA): -1.9
interaction score (4H483-AA): -1.91
interaction score (4H1845-AA): -1.49
interaction score (4H3427-AA): -1.17
interaction score (4H2621-AA): -0.883
interaction score (4H2699-AA): -0.951
B2: 4H1257-AA (peptide)
chain: DENAALEAENAALKAKIAALKAEIAALEG

interaction score (4H3588-AA; mean of both orientations): -0.275
interaction score (4H1867-AA): -1.22
interaction score (4H3112-AA): -1.06
interaction score (AP1-AA): -1.76
interaction score (4H317-AA): -1.49
interaction score (P2-AA): -1.76
interaction score (4H2944-AA): -1.67
interaction score (4H993-AA): -1.26
interaction score (4H48-AA): 0.338
interaction score (4H1845-AA): -1.13
interaction score (O6-AA): 1.98
interaction score (4H2907-AA): -1.63
interaction score (4H2883-AA): -1.43
interaction score (4H454-AA): -1.2
interaction score (4H3162-AA): -0.375
interaction score (4H2165-AA): -1.62
interaction score (4H3427-AA): -1.52
interaction score (AP5-AA): -0.362
interaction score (4H_APH2): -2.35
interaction score (4H2198-AA): 1.85
interaction score (P4-AA): -1.93
interaction score (4H3133-AA): -0.677
interaction score (P6-AA-1HAA-N): 1.57
interaction score (4H1552-AA): -0.741
B3: 4H1401-AA (peptide)
chain: DENAALEAKIAALKAKNAALKAEIAALEG

interaction score (4H3588-AA): -1.17
interaction score (4H1864-AA): -1.38
interaction score (4H1845-AA): -0.689
interaction score (4H123-AA): -1.25
interaction score (4H1597-AA): 0.572
interaction score (4H2907-AA): -1.24
interaction score (4H3162-AA): -1.46
interaction score (4H1388-AA): -1.65
interaction score (4H2198-AA): -1.52
interaction score (4H3133-AA): -0.11
B4: 4H1142-AA (peptide)
chain: DENAALEAEIAALKAKNAALEAKIAALKG

interaction score (4H1392-AA): -0.355
interaction score (4H1864-AA): 0.56
interaction score (4H1597-AA): -0.816
interaction score (4H3905-AA): 2.31
interaction score (P6-AA-1HAA-N): -0.2
B5: 4H1385-AA (peptide)
chain: DENAALEAKIAALKAKIAALKAEIAALEG

interaction score (4H3588-AA; mean of both orientations): -1.29
interaction score (4H1867-AA): 0.531
interaction score (4H3112-AA): -2.33
interaction score (4H317-AA; mean of both orientations): -1.45
interaction score (4H780-AA): -1.44
interaction score (4H2944-AA): -0.0983
interaction score (4H993-AA): 1.59
interaction score (4H48-AA): -1.38
interaction score (4H1845-AA): -1.27
interaction score (4H123-AA): -2.05
interaction score (4H2907-AA): -1.67
interaction score (4H2883-AA): -1.14
interaction score (4H454-AA): 0.894
interaction score (4H3162-AA): -1.68
interaction score (4H2165-AA): -1.33
interaction score (4H3427-AA): -0.781
interaction score (4H1388-AA): 0.435
interaction score (4H2198-AA): -1.56
interaction score (4H3133-AA): -2.15
interaction score (4H1552-AA): -0.818
B6: 4H1153-AA (peptide)
chain: DENAALEAENAALEAEIAALEAEIAALEG

interaction score (4H3588-AA; mean of both orientations): -1.56
interaction score (4H3112-AA): -1.24
interaction score (4H2442-AA): -1.87
interaction score (4H2907-AA): -1.92
interaction score (4H3162-AA): -1.73
interaction score (4H3427-AA): -1.86
interaction score (4H2198-AA): -1.5
interaction score (4H3133-AA): -0.676
B7: 4H1845-AA (peptide)
chain: DENAALKAKIAALEAKNAALEAKIAALEG

interaction score (AP1-AA): -1.62
interaction score (P2-AA): 0.917
interaction score (4H993-AA): 1.33
interaction score (4H48-AA): -0.695
interaction score (4H454-AA): 1.23
interaction score (AP5-AA): 2.26
interaction score (4H_APH2): -2.3
interaction score (P4-AA): -0.573
B8: 4H3606-AA (peptide)
chain: DKNAALKAEIAALEAENAALEAKIAALKG
